Measured values taken from patent US20090041679A1.
Read-outs that look alike come from different tables or passages of the source.

Tests used:
[1] = molecular target: purified H5N1 HA (influenza A virus H5N1)
[2] = molecular target: purified H5N1 HA (influenza A virus H5N1); remark: listed apart in the source

B1: BF1-10 (antibody, V domains shown)
VH: QVQLQESGPGLVKPSQTLSLTCAVSGGSISSRGYYWSWIRQPPGKGLEWIGYIFYTGGTDYNPSLKSRITISRDTPKNQISLNLSSVTAADTAVYYCARVVDGSSGYHHYYFDYWGQGTLVTVSS
VL: DIQMTQSPASLAVSLGQRATISYRASKSVSTSGYSYMHWNQQKPGQPPRLLIYLVSNLESGVPARFSGSGSGTDFTLNIHPVEEEDAATYYCQHIRELTRSEGGPSWRSN
Kd [1]: 10.8 nM | Kd [2]: 10 to 50 nM

B2: BF1-19 (antibody, V domains shown)
VH: QVQLQESGPGLVKPSETLSLTCTVSGSSMRTHYWTWIRQPPGKGLEWIGNIYYSGSTDYNPSLKSRVTISVDTSKNQFSLKLSSVTAADTAVYFCARTKHFDILPGGVFDMWGRGTTVSS
VL: DIVMTQSPASLAVSLGQRATISYRASKSVSTSGYSYMHWNQQKPGQPPRLLIYLVSNLESGVPARFSGSGSGTDFTLNIHPVEEEDAATYYCQHIRELTRSEGGPKWISN
Kd [1]: 48.2 nM | Kd [2]: 10 to 50 nM

B3: BF1-1 (antibody, V domains shown)
VH: EVQLVQSGPGLVKPSETLSLTCTVSGSSMRTHYWTWIRQPPGKGLEWIGNIYYSGSTDYNPSLKSRVTISVDTSKNQFSLKLSSVTAADTAVYFCARTKHFDILPGGVFDMWGRGTTVTVSS
VL: SYELTQLPSVSVSPGQTATITCSGDRLGDKYACWYQQKPGQSPVLVIFQDTKRPSGIPERFSGSNSGNTATLTISGTQAMDEADYYCQAWDSNIGVFGGGTKLTVL
Kd [1]: 20.3 nM
